IC50 data for two substances are collected here from US20060110401A1, “Mixture of peptides from c and ns3 proteins of the hepatitis c virus and applications thereof” (priority 2002, published 2006).

Experiment [1] concerns the target HLA-DR7 (DRB1*0701) (human). Nature of the experiment: competition binding.
Experiment [2] has as its target HLA-DRB3 (DRB3*0101) (human). Kind of experiment: competition binding.
The target in experiment [3] is HLA-DR11 (DRB1*1101) (human). Nature of the experiment: competition binding.
The target in experiment [4] is HLA-DRB4 (DRB4*0101) (human). Kind of experiment: competition binding.
Experiment [5] has as its target HLA-DR4 (DRB1*0401) (human). Nature of the experiment: competition binding.
For experiment [6], the target named is HLA-DR3 (DRB1*0301) (human). Nature of the experiment: competition binding.
Experiment [7] has as its target HLA-DR15 (DRB1*1501) (human). Nature of the experiment: competition binding.
Experiment [8] concerns the target HLA-DRB5 (DRB5*0101) (human). Kind of experiment: competition binding.
For experiment [9], the target named is HLA-DR1 (DRB1*0101) (human). Nature of the experiment: competition ELISA, purified HLA II; tracer biotinylated HA 306-318.

In the case of “9N 1036-1055 (from UniProt P26664 1036-1055)”, the IC50 in [1] was found to be 1250 nM; in experiment [2], 35 µM; in experiment [3], 163 nM; in experiment [4], 150 nM; in experiment [5], 60 nM; in experiment [6], 6 µM. Also, the half-inhibitory concentration (IC50) in experiment [7] came out at 10 µM; in experiment [8] it was 10 nM.

Take “28N 1524-1553 (peptide; other documents disagree on this pair)”: the IC50 in [9] is 2 nM.
